The record followed here is article PMC12871931, “The importin‐alpha superfamily engages in ethylene signaling by shuttling ETHYLENE INSENSITIVE 2 from the endoplasmic reticulum to the nucleus” (The Febs Journal, 2025).

pKd: −log10 of the molar value.

One may read the pKd as the Kd on a negative log10 scale, so that one unit is a factor of ten. Read a low pKd as a high Kd.

The target in this assay is TAMRA‐NOP‐1 (EIN2 NLS peptide, N‐terminally labeled with 5‐TAMRA) (Arabidopsis thaliana). Put plainly: fluorescence polarisation; direct titration: TAMRA-NOP-1 constant at 250 nM, IMPα protein concentration varied; 50 μL samples; LS55 spectrometer; Kd by Logistic Fit in Origin; three independent measurements.

As for “IMPα7_ΔIBB (importin α7 lacking the N-terminal importin β binding domain), Arabidopsis thaliana, recombinant (domain or fragment)”, the pKd is 5.52.
With “ΔIBB_IMPα1 (importin α1 lacking the IBB domain), Arabidopsis thaliana, recombinant (domain or fragment)” the figure was 5.49.
